{"source": "the Human Domainome abundance scans (Beltran et al. 2025)", "parents": {"B1": {"name": "Cytoplasmic polyadenylation element-binding protein 2, residues 513 to 575; numbered along this chain, Q7Z5Q1 (parent)", "chain": "KRVEVKPYVLDDQMCDECQGARCGGKFAPFFCANVTCLQYYCEFCWANIHSRAGREFHKPLVK"}}, "note": "± gives the uncertainty stated by the source."}
{"variants_of": "B1", "assay": "abundance fitness (aPCA) (normalised: wild type 0, dead -1); higher = more abundant; growth selection in yeast, the domain comes from the species named", "conditions": "Homo sapiens"}
{"variant": "KRVMVKPYVLDDQMCDECQGARCGGKFAPFFCANVTCLQYYCEFCWANIHSRAGREFHKPLVK", "abundance fitness": "-0.242 ± 0.054"}
{"variant": "KRSEVKPYVLDDQMCDECQGARCGGKFAPFFCANVTCLQYYCEFCWANIHSRAGREFHKPLVK", "abundance fitness": "0.013 ± 0.042"}
{"variant": "KREEVKPYVLDDQMCDECQGARCGGKFAPFFCANVTCLQYYCEFCWANIHSRAGREFHKPLVK", "abundance fitness": "0.084 ± 0.043"}
{"variant": "KRTEVKPYVLDDQMCDECQGARCGGKFAPFFCANVTCLQYYCEFCWANIHSRAGREFHKPLVK", "abundance fitness": "0.167 ± 0.063"}
{"variant": "KRVEVKPYVLDDQMSDECQGARCGGKFAPFFCANVTCLQYYCEFCWANIHSRAGREFHKPLVK", "abundance fitness": "-0.377 ± 0.054"}
{"variant": "KRVEVKPYVLDDQMQDECQGARCGGKFAPFFCANVTCLQYYCEFCWANIHSRAGREFHKPLVK", "abundance fitness": "-0.55 ± 0.12"}
{"variant": "KRVEVKPYVLDDQMCDECQGARCGGKFAPFFCANVTCLQYYCEFCWANIHSCAGREFHKPLVK", "abundance fitness": "-0.077 ± 0.14"}
{"variant": "KRVEVKPYVLDDQMCDECQGARWGGKFAPFFCANVTCLQYYCEFCWANIHSRAGREFHKPLVK", "abundance fitness": "-0.424 ± 0.061"}
{"variant": "KRVEVKPYVLDDQMCDECQGARFGGKFAPFFCANVTCLQYYCEFCWANIHSRAGREFHKPLVK", "abundance fitness": "-0.409 ± 0.07"}
{"variant": "KRVEVKPYVLDDQMCDECQGARCGGKFAPFFCANVTCLQYYCEFCWANIHSRAGREFHKPLVQ", "abundance fitness": "-0.044 ± 0.11"}
{"variant": "KRVEVKPYVLDDQMCDECQGARCGGKFAPFFCANVTCLQYYCEFCWANIHSRAGREFHKPLDK", "abundance fitness": "-0.164 ± 0.22"}
{"variant": "KRVEVKPYVLDDQMCDECQGARCGGKFAPFFCANVPCLQYYCEFCWANIHSRAGREFHKPLVK", "abundance fitness": "-0.054 ± 0.048"}
{"variant": "KRVEVKPYVLDDQMCDECQGARCSGKFAPFFCANVTCLQYYCEFCWANIHSRAGREFHKPLVK", "abundance fitness": "-0.046 ± 0.044"}
{"variant": "KRVEVKPYVLDDQMCDECQGARCGGKFAPFFCANVTCLQYYCEFCWANIHSRIGREFHKPLVK", "abundance fitness": "-0.079 ± 0.076"}
{"variant": "KRVEVLPYVLDDQMCDECQGARCGGKFAPFFCANVTCLQYYCEFCWANIHSRAGREFHKPLVK", "abundance fitness": "-0.297 ± 0.037"}
{"variant": "KRVEVKPYVLDDQMCDECQGIRCGGKFAPFFCANVTCLQYYCEFCWANIHSRAGREFHKPLVK", "abundance fitness": "-0.217 ± 0.079"}
{"variant": "KRVEVKPYVLDDQMCDECQGERCGGKFAPFFCANVTCLQYYCEFCWANIHSRAGREFHKPLVK", "abundance fitness": "-0.037 ± 0.063"}
{"variant": "KRVEVKPYVLDDQMCDECQGARCGGKFAPTFCANVTCLQYYCEFCWANIHSRAGREFHKPLVK", "abundance fitness": "-0.188 ± 0.055"}
{"variant": "KRVEVKPYVLDDQMCDECQGARCGGKFAPAFCANVTCLQYYCEFCWANIHSRAGREFHKPLVK", "abundance fitness": "-0.261 ± 0.066"}
{"variant": "KRVEVKPYVLDDQMCDECQGARCGGKFAPKFCANVTCLQYYCEFCWANIHSRAGREFHKPLVK", "abundance fitness": "0.037 ± 0.056"}
{"variant": "KRVEVKPYVLDDQMCDECQGAGCGGKFAPFFCANVTCLQYYCEFCWANIHSRAGREFHKPLVK", "abundance fitness": "-0.303 ± 0.054"}
{"variant": "KRVEVKPYVLDDQMCDECQGAECGGKFAPFFCANVTCLQYYCEFCWANIHSRAGREFHKPLVK", "abundance fitness": "-0.222 ± 0.061"}
{"variant": "KRVEVKPYVLDDQMCDECQGAICGGKFAPFFCANVTCLQYYCEFCWANIHSRAGREFHKPLVK", "abundance fitness": "-0.284 ± 0.07"}
{"variant": "KRVEVKPYVLDDQMCDECQGARCGGKFAPFFCANVTVLQYYCEFCWANIHSRAGREFHKPLVK", "abundance fitness": "-0.88 ± 0.068"}
{"variant": "KRVEVKPYVLDDQMCCECQGARCGGKFAPFFCANVTCLQYYCEFCWANIHSRAGREFHKPLVK", "abundance fitness": "0.053 ± 0.067"}
{"variant": "KRVEVKPYVLDDQMCHECQGARCGGKFAPFFCANVTCLQYYCEFCWANIHSRAGREFHKPLVK", "abundance fitness": "0.076 ± 0.094"}
{"variant": "KRVEVKPYVLDDQMCGECQGARCGGKFAPFFCANVTCLQYYCEFCWANIHSRAGREFHKPLVK", "abundance fitness": "0.137 ± 0.049"}
{"variant": "KRVEVKPYVLDDQMCDECHGARCGGKFAPFFCANVTCLQYYCEFCWANIHSRAGREFHKPLVK", "abundance fitness": "-0.134 ± 0.096"}
{"variant": "KRVEVKPYVLDDQMCDECQGARCGGKFAPFFCANYTCLQYYCEFCWANIHSRAGREFHKPLVK", "abundance fitness": "-0.305 ± 0.14"}
{"variant": "KRVEVKPYVLDDQMCDECQGARCGGKFAPFFCANDTCLQYYCEFCWANIHSRAGREFHKPLVK", "abundance fitness": "-0.091 ± 0.13"}
{"variant": "KRVEVKPYVLDDQMCDECQGARCGGKFAPFFCANVTCLTYYCEFCWANIHSRAGREFHKPLVK", "abundance fitness": "-0.002 ± 0.053"}
{"variant": "KRVEVKPYVLDDQMCDECQGARCGGKFAPFFCANVTCLHYYCEFCWANIHSRAGREFHKPLVK", "abundance fitness": "0.089 ± 0.083"}
{"variant": "KRVEVKPYVLDDQMCDECQGARCGGKFAPFFCANVTCLQYYYEFCWANIHSRAGREFHKPLVK", "abundance fitness": "-0.869 ± 0.094"}
{"variant": "KRVEVKPYVLDDQMCDECQGARCGGKFAPFFCANVTCLQYYLEFCWANIHSRAGREFHKPLVK", "abundance fitness": "-1.03 ± 0.075"}
{"variant": "KRVEVKPYVLDDQMCDECQGARCGGKFAPFFCANVTCLQYYQEFCWANIHSRAGREFHKPLVK", "abundance fitness": "-1.21 ± 0.22"}
{"variant": "KRVEVKPYVLDDQECDECQGARCGGKFAPFFCANVTCLQYYCEFCWANIHSRAGREFHKPLVK", "abundance fitness": "-0.073 ± 0.07"}
{"variant": "KRVEVKPYVLDDQMCDEEQGARCGGKFAPFFCANVTCLQYYCEFCWANIHSRAGREFHKPLVK", "abundance fitness": "-0.658 ± 0.12"}
{"variant": "KRVEVKPYVLDDQMCDEHQGARCGGKFAPFFCANVTCLQYYCEFCWANIHSRAGREFHKPLVK", "abundance fitness": "-1.01 ± 0.21"}
{"variant": "KRVEVKPYVLDDQMCDECQGARCGGKFAPFFCANVTCKQYYCEFCWANIHSRAGREFHKPLVK", "abundance fitness": "0.202 ± 0.062"}
{"variant": "KRVEVKPYVLDDQMCDECQGARCGGKFAPFFCANVTCAQYYCEFCWANIHSRAGREFHKPLVK", "abundance fitness": "0.044 ± 0.043"}
{"variant": "KRVEVKPYVLDDQMCDECQGARCGGKFAPFFCANVTCLQYYCEFCWANFHSRAGREFHKPLVK", "abundance fitness": "-0.044 ± 0.055"}
{"variant": "KRVEVKPYVLDDQMCDECQGARCGGKFAPFFCANVTCLQYYCEFCWANVHSRAGREFHKPLVK", "abundance fitness": "-0.01 ± 0.061"}
